Experimental data reported in patent US6017871A, “Protease-containing cleaning compositions” (The Procter & Gamble Company, priority 1997, dated 2000).
Where a chain is given by its changes, count along the chain named. Numbers in names are those of the source. Numbered stars: 1 amine (or outer) side, 2 acyl side, 3 side chain; on linkers, the order of the positions; unused ones are H or OH. Peptide text beside a SMILES is read from it. * marks the point of attachment. pNA = O=[N+]([O-])c1ccc(N*)cc1; Suc = O=C(CCC(=O)[*:2])[*:1]

B1: Bacillus lentus subtilisin (GG36), wild type, Seq. ID No.10 (Lederbergia lenta) (protein)
chain: AQSVPWGISRVQAPAAHNRGLTGSGVKVAVLDTGISTHPDLNIRGGASFVPGEPSTQDGNGHGTHVAGTIAALNNSIGVLGVAPSAELYAVKVLGASGSGSVSSIAQGLEWAGNNGMHVANLSLGSPSPSATLEQAVNSATSRGVLVVAASGNSGAGSISYPARYANAMAVGATDQNNNRASFSQYGAGLDIVAPGVNVQSTYPGSTYASLNGTSMATPHVAGAAALVKQKNPSWSNVQIRNHLKNTATSLGSTNLYGSGLVNAEAATR
notes: The mature subtilisin protein is coded by the codons beginning at the codon GCG (334-336) corresponding to Ala; made in house; host or cells: Bacillus subtilis
B2: Bacillus lentus subtilisin variant N76D/S101R (Protease #2) (Lederbergia lenta; N74D/S99R) (protein)
chain: B1 chain with N74D, S99R
notes: as for B1
B3: Bacillus lentus subtilisin variant N76D/N123S (Protease #6) (Lederbergia lenta; N121S/N74D) (protein)
chain: B1 chain with N74D, N121S
notes: as for B1
B4: Bacillus lentus subtilisin variant N76D/S99D (Protease #1) (Lederbergia lenta; N74D/S97D) (protein)
chain: B1 chain with N74D, S97D
notes: as for B1
B5: Bacillus lentus subtilisin variant N76D/S103A (Protease #3) (Lederbergia lenta; N74D/S101A) (protein)
chain: B1 chain with N74D, S101A
notes: as for B1
B6: Bacillus lentus subtilisin variant N76D (Lederbergia lenta; N74D) (protein)
chain: B1 chain with N74D
notes: as for B1
B7: Bacillus lentus subtilisin variant N76D/S99D/S101R (Protease #7) (Lederbergia lenta; N74D/S97D/S99R) (protein)
chain: B1 chain with N74D, S97D, S99R
notes: as for B1
B8: Bacillus lentus subtilisin variant N76D/I107V (Protease #5) (Lederbergia lenta; I105V/N74D) (protein)
chain: B1 chain with N74D, I105V
notes: as for B1
B9: Bacillus lentus subtilisin variant N76D/V104I (Protease #4) (Lederbergia lenta; N74D/V102I) (protein)
chain: B1 chain with N74D, V102I
notes: as for B1
B10: B. amyloliquefaciens subtilisin (BPN') variant BPN'-N76D/Y217L (Bacillus amyloliquefaciens; N183D/Y324L) (protein)
chain: AQSVPYGVSQIKAPALHSQGYTGSNVKVAVIDSGIDSSHPDLKVAGGASMVPSETNPFQDNNSHGTHVAGTVAALDNSIGVLGVAPSASLYAVKVLGADGSGQYSWIINGIEWAIANNMDVINMSLGGPSGSAALKAAVDKAVASGVVVVAAAGNEGTSGSSSTVGYPGKYPSVIAVGAVDSSNQRASFSSVGPELDVMAPGVSIQSTLPGNKYGALNGTSMASPHVAGAAALILSKHPNWTNTQVRSSLENTTTKLGDSFYYGKGLINVQAAAQ
notes: made in house; host or cells: protease-deficient Bacillus subtilis

Legend:
Assay in all cases: Kinetic parameters for hydrolysis of synthetic peptide substrate
[1] = biological target: T1, B. amyloliquefaciens subtilisin (BPN'), wild type, Seq. ID No.7 (Bacillus amyloliquefaciens, UniProt P00782); type: biochemical; conditions: Table V; 0.1 M Tris-HCL buffer, pH 8.6, 25° C.
T1 construct: made in house; host or cells: protease-deficient Bacillus subtilis
T1 sequence (P00782 108-382): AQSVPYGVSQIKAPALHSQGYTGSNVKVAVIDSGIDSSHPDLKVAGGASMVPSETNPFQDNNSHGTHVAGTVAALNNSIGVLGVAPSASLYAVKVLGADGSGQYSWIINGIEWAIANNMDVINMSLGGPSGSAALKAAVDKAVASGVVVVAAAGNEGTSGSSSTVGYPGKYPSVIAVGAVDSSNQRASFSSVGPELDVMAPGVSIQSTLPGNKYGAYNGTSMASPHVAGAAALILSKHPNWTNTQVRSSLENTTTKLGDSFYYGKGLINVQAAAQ
Protocol: (§1) The kinetic parameters kcat, KM, and kcat KM are measured for hydrolysis of the synthetic peptide substrate succinyl-L-Ala-L-Ala-L-Pro-L-Phe-p-nitroanilide using the method described in P. Bonneau et al. (1991) J. Am. Chem. Soc., Vol. 113, No. 3, p. 1030. Briefly, a small aliquot of subtilisin variant stock solution is added to a 1 cm cuvette containing substrate dissolved in 0.1 M Tris-HCL buffer, pH 8.6, and thermostated at 25° C. The reaction progress is followed spectrophotometrically by monitoring the absorbance of the reaction product p-nitroaniline at 410 nm. Kinetic parameters are obtained by using a non-linear regression algorithm to fit the reaction velocity and product concentration for each reaction to the Michaelis-Menten equation.
(§2) Numerous variants are made as per the teachings of these Protease Manufacture Examples. Kinetics data and stability data are generated for such variants. The kinetics data are generated using the methods described hereinbefore and are provided in Table V. The stability data are generated as detailed herein.

[2] = biological target: T2, Bacillus lentus subtilisin (GG36), wild type, Seq. ID No.10 (Lederbergia lenta, UniProt P29600); type: biochemical; conditions: Table III; 0.1 M Tris-HCL buffer, pH 8.6, 25° C.
T2 construct: The mature subtilisin protein is coded by the codons beginning at the codon GCG (334-336) corresponding to Ala; made in house; host or cells: Bacillus subtilis
T2 sequence (P29600 1-269): B1 chain
Protocol: as §1, §2

[3] = substrate: C[C@H](NC(=O)CCC(=O)O)C(=O)N[C@@H](C)C(=O)N1CCC[C@H]1C(=O)N[C@@H](Cc1ccccc1)C(=O)Nc1ccc([N+](=O)[O-])cc1; type: biochemical, Bacillus lentus; conditions: other: Table III, 0.1 M Tris-HCL buffer, pH 8.6, 25° C.
Protocol: as §1, §2

[4] = substrate: C[C@H](NC(=O)CCC(=O)O)C(=O)N[C@@H](C)C(=O)N1CCC[C@H]1C(=O)N[C@@H](Cc1ccccc1)C(=O)Nc1ccc([N+](=O)[O-])cc1; type: biochemical, Bacillus lentus; conditions: other: Table III, 0.1 M Tris-HCL buffer, pH 8.6, 25° C.; remark: listed apart in the source
Protocol: as §1

[5] = substrate: C[C@H](NC(=O)CCC(=O)O)C(=O)N[C@@H](C)C(=O)N1CCC[C@H]1C(=O)N[C@@H](Cc1ccccc1)C(=O)Nc1ccc([N+](=O)[O-])cc1; type: biochemical, Bacillus amyloliquefaciens; conditions: other: Table V, 0.1 M Tris-HCL buffer, pH 8.6, 25° C.
Protocol: as §1, §2

Molecule | Km [4] [µM] | kcat [4] [s⁻¹] | kcat/Km [4] [M⁻¹ s⁻¹] | also measured
C[C@H](NC(=O)CCC(=O)O)C(=O)N[C@@H](C)C(=O)N1CCC[C@H]1C(=O)N[C@@H](Cc1ccccc1)C(=O)Nc1ccc([N+](=O)[O-])cc1 [succinyl-L-Ala-L-Ala-L-Pro-L-Phe-p-nitroanilide] (Suc-AAPF-pNA) |  |  |  | kcat [1]: 50 s⁻¹; kcat/KM [1]: 3.60E + 05 s^-1 M^-1; kcat/KM [2]: 218000 M⁻¹ s⁻¹
B1 |  |  |  | Km [3]: 780 µM; kcat [3]: 170 s⁻¹; kcat/Km [3]: 2.20E + 05 s^-1 M^-1
B2 | 1300 | 371 | 285000 | 
B3 | 1800 | 115 | 64000 | 
B4 | 610 | 88 | 144000 | 
B5 | 1400 | 400 | 286000 | 
B6 | 800 | 219 | 274000 | 
B7 | 380 | 146 | 384000 | 
B8 | 1100 | 219 | 199000 | 
B9 | 1100 | 459 | 417000 | 
B10 |  |  |  | Km [5]: 460 µM; kcat [5]: 380 s⁻¹; kcat/Km [5]: 8.30E + 05 s^-1 M^-1
